Test results published in IntAct's records for PubMed 15252009.

B1: Formin-binding protein 1 (Homo sapiens), Q96RU3 (parent)
chain: MSWGTELWDQFDNLEKHTQWGIDILEKYIKFVKERTEIELSYAKQLRNLSKKYQPKKNSKEEEEYKYTSCKAFISNLNEMNDYAGQHEVISENMASQIIVDLARYVQELKQERKSNFHDGRKAQQHIETCWKQLESSKRRFERDCKEADRAQQYFEKMDADINVTKADVEKARQQAQIRHQMAEDSKADYSSILQKFNHEQHEYYHTHIPNIFQKIQEMEERRIVRMGESMKTYAEVDRQVIPIIGKCLDGIVKAAESIDQKNDSQLVIEAYKSGFEPPGDIEFEDYTQPMKRTVSDNSLSNSRGEGKPDLKFGGKSKGKLWPFIKKNKLMSLLTSPHQPPPPPPASASPSAVPNGPQSPKQQKEPLSHRFNEFMTSKPKIHCFRSLKRGLSLKLGATPEDFSNLPPEQRRKKLQQKVDELNKEIQKEMDQRDAITKMKDVYLKNPQMGDPASLDHKLAEVSQNIEKLRVETQKFEAWLAEVEGRLPARSEQARRQSGLYDSQNPPTVNNCAQDRESPDGSYTEEQSQESEMKVLATDFDDEFDDEEPLPAIGTCKALYTFEGQNEGTISVVEGETLYVIEEDKGDGWTRIRRNEDEEGYVPTSYVEVCLDKNAKDS
partner: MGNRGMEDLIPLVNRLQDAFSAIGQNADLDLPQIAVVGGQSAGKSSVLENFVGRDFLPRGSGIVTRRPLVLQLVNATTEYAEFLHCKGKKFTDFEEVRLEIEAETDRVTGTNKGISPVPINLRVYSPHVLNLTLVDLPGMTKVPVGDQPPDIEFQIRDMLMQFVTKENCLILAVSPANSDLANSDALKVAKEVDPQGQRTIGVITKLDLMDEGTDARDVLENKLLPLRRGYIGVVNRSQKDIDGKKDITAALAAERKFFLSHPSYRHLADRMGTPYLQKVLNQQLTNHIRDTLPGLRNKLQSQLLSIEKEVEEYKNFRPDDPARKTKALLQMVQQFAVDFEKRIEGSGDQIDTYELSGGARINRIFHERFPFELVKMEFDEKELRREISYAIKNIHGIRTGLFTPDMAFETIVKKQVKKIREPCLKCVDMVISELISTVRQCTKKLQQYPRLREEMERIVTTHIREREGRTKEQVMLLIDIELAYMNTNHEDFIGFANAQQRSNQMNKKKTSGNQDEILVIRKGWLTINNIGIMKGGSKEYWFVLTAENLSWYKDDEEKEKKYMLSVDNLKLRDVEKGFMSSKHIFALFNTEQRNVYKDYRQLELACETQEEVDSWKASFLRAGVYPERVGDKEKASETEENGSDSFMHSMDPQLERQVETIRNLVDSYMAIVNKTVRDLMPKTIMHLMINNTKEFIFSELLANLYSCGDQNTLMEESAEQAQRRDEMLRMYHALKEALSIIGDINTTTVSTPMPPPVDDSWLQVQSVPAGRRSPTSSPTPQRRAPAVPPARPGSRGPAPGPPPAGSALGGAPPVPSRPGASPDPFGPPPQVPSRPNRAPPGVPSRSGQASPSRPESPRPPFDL
B2: Formin-binding protein 1 (Homo sapiens), Q96RU3 (parent)
chain: B1 chain
partner: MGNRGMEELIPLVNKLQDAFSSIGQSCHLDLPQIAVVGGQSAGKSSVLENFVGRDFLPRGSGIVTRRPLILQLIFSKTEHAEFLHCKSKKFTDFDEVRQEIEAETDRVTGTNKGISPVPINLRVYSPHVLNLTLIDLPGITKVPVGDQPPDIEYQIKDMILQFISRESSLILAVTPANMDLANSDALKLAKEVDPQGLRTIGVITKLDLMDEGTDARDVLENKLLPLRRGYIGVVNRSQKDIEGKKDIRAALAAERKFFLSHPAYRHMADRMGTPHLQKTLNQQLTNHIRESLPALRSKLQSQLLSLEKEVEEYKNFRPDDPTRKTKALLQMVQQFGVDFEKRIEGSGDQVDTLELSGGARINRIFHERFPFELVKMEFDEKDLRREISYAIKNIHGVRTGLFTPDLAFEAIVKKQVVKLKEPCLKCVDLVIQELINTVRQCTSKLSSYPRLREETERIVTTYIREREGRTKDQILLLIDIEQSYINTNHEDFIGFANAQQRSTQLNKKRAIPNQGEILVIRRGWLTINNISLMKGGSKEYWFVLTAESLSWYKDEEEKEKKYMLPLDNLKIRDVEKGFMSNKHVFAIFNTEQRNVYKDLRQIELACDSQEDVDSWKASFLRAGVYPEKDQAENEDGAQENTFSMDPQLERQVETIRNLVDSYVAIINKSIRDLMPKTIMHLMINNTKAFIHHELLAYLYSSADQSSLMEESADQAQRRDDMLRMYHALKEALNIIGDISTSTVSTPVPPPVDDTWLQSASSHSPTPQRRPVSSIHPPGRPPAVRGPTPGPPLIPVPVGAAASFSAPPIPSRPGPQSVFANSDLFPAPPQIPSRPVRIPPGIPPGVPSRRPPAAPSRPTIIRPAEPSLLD
B3: Formin-binding protein 1 (Homo sapiens), Q96RU3 (parent)
chain: B1 chain
partner: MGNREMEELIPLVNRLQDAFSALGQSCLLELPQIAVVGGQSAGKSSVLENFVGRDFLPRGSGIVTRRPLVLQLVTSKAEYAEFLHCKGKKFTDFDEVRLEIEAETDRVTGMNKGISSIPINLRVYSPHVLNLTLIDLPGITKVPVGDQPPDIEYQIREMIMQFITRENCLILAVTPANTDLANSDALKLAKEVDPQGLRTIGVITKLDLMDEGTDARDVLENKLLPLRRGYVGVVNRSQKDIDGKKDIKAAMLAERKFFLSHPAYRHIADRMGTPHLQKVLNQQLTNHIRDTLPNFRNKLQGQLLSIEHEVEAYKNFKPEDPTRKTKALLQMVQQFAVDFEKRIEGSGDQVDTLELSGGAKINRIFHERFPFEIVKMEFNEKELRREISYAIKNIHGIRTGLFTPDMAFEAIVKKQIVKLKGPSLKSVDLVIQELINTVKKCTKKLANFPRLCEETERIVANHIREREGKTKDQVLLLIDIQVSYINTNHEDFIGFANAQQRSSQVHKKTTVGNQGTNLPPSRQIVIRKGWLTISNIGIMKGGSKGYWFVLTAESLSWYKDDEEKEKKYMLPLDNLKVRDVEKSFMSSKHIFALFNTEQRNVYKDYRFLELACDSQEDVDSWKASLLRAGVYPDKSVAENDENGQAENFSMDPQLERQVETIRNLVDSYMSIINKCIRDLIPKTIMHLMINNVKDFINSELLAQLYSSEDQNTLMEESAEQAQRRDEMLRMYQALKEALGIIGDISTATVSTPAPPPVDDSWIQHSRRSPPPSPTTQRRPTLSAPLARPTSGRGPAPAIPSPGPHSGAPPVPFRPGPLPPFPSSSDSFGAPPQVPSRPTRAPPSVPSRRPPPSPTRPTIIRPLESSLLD

Variants of: B1
Conditions: with dyn1_human DNM1, Q05193

Variant | effect of a mutation on the interaction
P602L | decreasing interaction

Variants of: B2
Conditions: with dyn2_human DNM2, P50570

Variant | effect of a mutation on the interaction
P602L | decreasing interaction

Variants of: B3
Conditions: with dyn3_human DNM3, Q9UQ16

Variant | effect of a mutation on the interaction
P602L | decreasing interaction
